Assay [1] has as its target T1, wild type CAD (CAD-WT) (1-345), caspase-activated deoxyribonuclease, 35S-labelled (mouse, UniProt O54788 1-344, 35S label).
T1 construct: range 1-345; also called 35S-labeled CAD
T1 sequence (looked up): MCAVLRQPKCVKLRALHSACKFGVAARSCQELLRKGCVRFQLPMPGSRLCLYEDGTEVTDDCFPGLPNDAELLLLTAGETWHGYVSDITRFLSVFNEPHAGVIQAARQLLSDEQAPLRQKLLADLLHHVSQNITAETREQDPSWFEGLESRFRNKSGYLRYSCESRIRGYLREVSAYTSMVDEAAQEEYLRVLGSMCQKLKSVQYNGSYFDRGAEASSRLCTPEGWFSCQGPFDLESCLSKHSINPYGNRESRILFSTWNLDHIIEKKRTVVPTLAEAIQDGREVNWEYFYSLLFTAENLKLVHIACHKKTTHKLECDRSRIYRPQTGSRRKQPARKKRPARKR
Briefly: GST pull-down on glutathione-agarose beads, labelled CAD, SDS-PAGE. The method, then:
In detail, wild type CIA (CIA-WT) and its deletion mutants, CIA-ΔN, CIA-ΔC and CIA-CEN, all of them prepared in Example 4, were immobilized onto glutathione-agarose beads and then applied to in vitro translated [^35S] methionine-labeled CAD. Meanwhile, wild type CAD (CAD-WT) (1–345) and its deletion mutants, CAD-ΔN deficient in a […] region (Δ1–83), CAD-NT containing N-terminal half only (Δ162–345), CAD-ΔC deficient in a C-terminal region (Δ290–345), were prepared by PCR and cloned to pLexA (Clonetech). After being isolated and purified from E. coli transformants harboring the expression vectors, the recombinant proteins CAD-WT, CAD-ΔN, CAD-NT and CAD-ΔC, were labeled with ^35S radioactive isotope, and then applied to the glutathione-agarose beads onto which GST-CIA was immobilized. The proteins bounded to the glutathione-agarose beads were eluted, and separated on a gel by SDS-PAGE.

Assay [2] concerns the target T2, ASK1 wild-type, full length (apoptosis signal-regulating kinase 1), in vitro translated and … (UniProt Q99683 1-1374, 35S-methionine label).
T2 construct: range 1-1375; also called full length ASK1; 35S-labeled ASK1
T2 sequence (looked up): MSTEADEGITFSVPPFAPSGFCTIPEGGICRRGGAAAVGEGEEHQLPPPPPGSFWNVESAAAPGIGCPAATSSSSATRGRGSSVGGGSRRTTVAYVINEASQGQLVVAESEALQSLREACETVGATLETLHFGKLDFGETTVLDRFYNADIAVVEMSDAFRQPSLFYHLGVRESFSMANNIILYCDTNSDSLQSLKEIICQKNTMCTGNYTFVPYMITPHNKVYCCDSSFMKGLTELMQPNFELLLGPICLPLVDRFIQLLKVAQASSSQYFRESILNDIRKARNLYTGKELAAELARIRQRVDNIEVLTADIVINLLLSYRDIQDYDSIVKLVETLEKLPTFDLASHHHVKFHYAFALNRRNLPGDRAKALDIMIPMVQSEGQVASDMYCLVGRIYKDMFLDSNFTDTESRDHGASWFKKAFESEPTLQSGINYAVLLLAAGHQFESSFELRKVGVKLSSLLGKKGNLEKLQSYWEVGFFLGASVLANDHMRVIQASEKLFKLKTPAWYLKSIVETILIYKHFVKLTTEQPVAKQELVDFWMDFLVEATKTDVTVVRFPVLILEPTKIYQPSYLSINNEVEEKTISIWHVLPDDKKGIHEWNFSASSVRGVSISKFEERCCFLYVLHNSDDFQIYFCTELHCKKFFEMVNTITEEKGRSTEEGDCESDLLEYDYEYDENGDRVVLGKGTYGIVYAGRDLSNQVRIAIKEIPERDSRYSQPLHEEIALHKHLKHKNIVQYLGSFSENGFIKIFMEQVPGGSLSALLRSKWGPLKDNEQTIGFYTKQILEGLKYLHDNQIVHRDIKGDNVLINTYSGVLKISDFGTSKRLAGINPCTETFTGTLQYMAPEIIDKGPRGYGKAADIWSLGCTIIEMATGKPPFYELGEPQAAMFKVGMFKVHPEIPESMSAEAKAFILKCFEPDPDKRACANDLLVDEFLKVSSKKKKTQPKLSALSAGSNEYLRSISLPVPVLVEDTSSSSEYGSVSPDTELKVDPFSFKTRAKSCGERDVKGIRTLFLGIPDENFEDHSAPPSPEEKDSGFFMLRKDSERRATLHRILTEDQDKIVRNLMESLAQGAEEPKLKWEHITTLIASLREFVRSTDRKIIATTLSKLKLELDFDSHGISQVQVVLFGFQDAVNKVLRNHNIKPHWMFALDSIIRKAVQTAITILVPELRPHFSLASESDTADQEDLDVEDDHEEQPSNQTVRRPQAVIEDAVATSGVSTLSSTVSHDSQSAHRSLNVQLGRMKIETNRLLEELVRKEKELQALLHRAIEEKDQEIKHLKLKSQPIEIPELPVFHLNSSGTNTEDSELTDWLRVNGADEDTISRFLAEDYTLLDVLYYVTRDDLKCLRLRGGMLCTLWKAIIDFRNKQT
Briefly: GST pull-down on glutathione-agarose beads, 35S-labelled ASK1, SDS-PAGE. The protocol: After being immobilized onto glutathione-agarose beads, GST-CIA-WT and its deletion recombinant peptides were reacted with the […] [^35S] methionine-labeled ASK1 or its mutant peptides at 4° C. for 3 hours in a buffer (50 mM Tris, pH 7.5, 150 mM NaCl, 2 mM EDTA, 1 mM dithiothreitol, 0.1% NP-40 and 5 mg/ml BSA). After completion of the reaction, the glutathione-agarose beads were washed three times with a buffer (50 mM HEPES, pH 7.5, 150 mM NaCl, 1 mM EDTA, 1 mM dithiothreitol, 0.1% Tween 20). Next, ^35S-labeled peptides were eluted from the glutathione-agarose beads and analyzed by SDS-PAGE.

From US6987089 (dated 2006) come the findings set out here.

B1: GST-CIA-ΔN (CIA deficient in N-terminal amino acids 1 to 78) (other)
chain: AAFRQVQGSEISSIDEFCRKFRLDCPLAMERIKEDRPITIKDDKGNLNRCIADVVSLFITVMDKLRLEIRAMDEIQPDLRELMETMHRMSHLPPDFEGRQTVSQWLQTLSGMSASDELDDSQVRQMLFDLESAYNAFNRFLHA
notes: Range follows from 'deficient in N-terminal amino acids 1 to 78' of the 221-residue protein; also called CIA-AN; N-terminal region-deleted CIA peptide; not shown: N-terminal GST of pGEX-4T-1 and its linker
Take B1: in assay [1], the binding result is given as “no binding”.

B2: GST-CIA-CEN (CIA containing only amino acids 79 to 174) (other)
chain: AAFRQVQGSEISSIDEFCRKFRLDCPLAMERIKEDRPITIKDDKGNLNRCIADVVSLFITVMDKLRLEIRAMDEIQPDLRELMETMHRMSHLPPDF
notes: also called CIA mutant peptide deficient in both terminal regions; not shown: N-terminal GST of pGEX-4T-1 and its linker
For the molecule B2, the binding result in assay [1] and in assay [2] was “no binding” each time.
